These results are taken from paper PMC6955894, “Development of Aptamer-Based TID Assays Using Thermophoresis and Microarrays”.

The target of data set [1] is T1, VEGF-A165 (human, UniProt P15692-4 27-191). Nature of the data set: MST; TBSET: 10 mM Tris, 100 mM NaCl, 50 mM KCl, 0.05 mM EDTA, 0.05% Tween 20, pH 7; MST with 25 nM aptamer, 20 min at 20 C, read at room temperature; microarray in TBSETB (TBSET + 1% BSA), 1 h for the co-incubation. Conditions: protein: recombinant, chain copies: 2.
In data set [2] the target is T2, alpha-chymotrypsin (UniProt P00766;P00766;P00766 1-13;16-146;149-245). Nature of the data set: capillary-scan TID (competition); up to 7.5 uM; complement did not dissociate; TBSET: 10 mM Tris, 100 mM NaCl, 50 mM KCl, 0.05 mM EDTA, 0.05% Tween 20, pH 7; MST with 25 nM aptamer, 20 min at 20 C, read at room temperature; microarray in T.
Data set [3] has as its target T2, alpha-chymotrypsin. In words: microarray TID (competition); 1 uM protein, 1000 pM cV7t1-Cy5: no decrease; TBSET: 10 mM Tris, 100 mM NaCl, 50 mM KCl, 0.05 mM EDTA, 0.05% Tween 20, pH 7; MST with 25 nM aptamer, 20 min at 20 C, read at room temperature; microarray in T.
Data set [4] deals with T1, VEGF-A165. In words: MST; no binding curve over 5 fluorescence units; TBSET: 10 mM Tris, 100 mM NaCl, 50 mM KCl, 0.05 mM EDTA, 0.05% Tween 20, pH 7; MST with 25 nM aptamer, 20 min at 20 C, read at room temperature; microarray in TBSETB (TBSET + 1% BSA), 1 h for the co-incubation. To be noted: protein: recombinant; chain copies: 2; label: 3' FITC.

T1 sequence (P15692 other isoform, or with tags, fused parts or gaps): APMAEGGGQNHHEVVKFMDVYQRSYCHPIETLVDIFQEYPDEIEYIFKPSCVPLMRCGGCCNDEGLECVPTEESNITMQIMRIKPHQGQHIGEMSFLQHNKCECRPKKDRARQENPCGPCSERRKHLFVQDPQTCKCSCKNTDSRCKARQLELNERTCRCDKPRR

B1: V7t1-Cy5 (structured_DNA)
DNA: TGTGGGGGTGGACGGGCCGGGTAGATAGTATGTGCAATC
As for B1, the Kd (commonly the concentration at which binding is half-saturated) in the data set with VEGF-A165 [1] (label: 3' Cy5, G-quadruplex with three G-quartets) came out at 201 ± 28 nM.

B2: V7t1-FITC/cV7t1-Dabcyl (mixed)
DNA 1: TGTGGGGGTGGACGGGCCGGGTAGATAGTATGTGCATTC
DNA 2: CCGTCCACCCCC
modifications: 3' Dabcyl quencher on strand 2
Regarding B2, the binding result in the data set with alpha-chymotrypsin [2] was “no binding”.

B3: V7t1-NH2/cV7t1-Cy5 (mixed)
DNA 1: TGTGGGGGTGGACGGGCCGGGTAGATAGTATGTGCATTC
DNA 2: CCGTCCACCCCC
modifications: 3' NH2 on strand 1, immobilized on aldehyde slide
In the case of B3, in the data set with alpha-chymotrypsin [3], the binding result is “no binding”.

B4: V7t1-FITC (structured_DNA)
DNA: TGTGGGGGTGGACGGGCCGGGTAGATAGTATGTGCATTC
On to B4, for which, in the data set with VEGF-A165 [1] (label: 5' FITC, G-quadruplex with three G-quartets), the dissociation constant Kd is 155 ± 55 nM.

B5: Del5-1-Cy5 (ssDNA)
DNA: ATACCAGTCTATTCAATTGGGCCCGTCCGTATGGTGGGTGTGCTGGCCAG
On to B5, for which, in the data set with VEGF-A165 [1] (label: 3' Cy5), the dissociation constant Kd was 47 ± 18 nM.

B6: Syl3C-FITC (ssDNA)
DNA: CACTACAGAGGTTGCGTCTGTCCCACGTTGTCATGGGGGGTTGGCCTG
Consider B6, for which, in the data set with VEGF-A165 [4], the binding result was “no binding”.
